T1: CaMKIV(h) (human, UniProt Q16566 1-473)
T1 sequence (looked up): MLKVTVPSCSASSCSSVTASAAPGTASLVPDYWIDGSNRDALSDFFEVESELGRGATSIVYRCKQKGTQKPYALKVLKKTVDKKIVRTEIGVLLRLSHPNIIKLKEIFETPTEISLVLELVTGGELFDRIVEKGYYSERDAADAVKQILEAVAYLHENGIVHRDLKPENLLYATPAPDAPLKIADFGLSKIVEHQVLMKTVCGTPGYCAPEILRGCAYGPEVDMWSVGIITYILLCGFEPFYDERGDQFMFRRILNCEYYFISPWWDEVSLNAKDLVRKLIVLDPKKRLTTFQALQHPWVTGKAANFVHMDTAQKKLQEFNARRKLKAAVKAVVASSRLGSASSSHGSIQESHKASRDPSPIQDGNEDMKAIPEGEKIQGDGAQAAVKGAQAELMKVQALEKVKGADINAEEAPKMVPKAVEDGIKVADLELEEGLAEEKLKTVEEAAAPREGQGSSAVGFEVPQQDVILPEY

T2: MRCKβ(h) (human, UniProt Q9Y5S2 1-473, limits assumed)
T2 sequence (looked up): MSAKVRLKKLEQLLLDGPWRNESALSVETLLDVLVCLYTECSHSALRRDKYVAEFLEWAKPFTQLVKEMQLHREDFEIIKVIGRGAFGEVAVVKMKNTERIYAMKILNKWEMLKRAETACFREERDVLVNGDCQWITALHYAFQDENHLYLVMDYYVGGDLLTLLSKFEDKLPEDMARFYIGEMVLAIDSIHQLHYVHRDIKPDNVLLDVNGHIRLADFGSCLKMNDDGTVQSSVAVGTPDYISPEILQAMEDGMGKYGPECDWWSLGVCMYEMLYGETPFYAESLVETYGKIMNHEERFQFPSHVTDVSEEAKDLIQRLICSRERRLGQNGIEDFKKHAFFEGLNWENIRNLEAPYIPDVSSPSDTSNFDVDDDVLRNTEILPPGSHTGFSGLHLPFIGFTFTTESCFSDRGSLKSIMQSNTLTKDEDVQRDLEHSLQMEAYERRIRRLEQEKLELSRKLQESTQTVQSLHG

T3: GCK(h) (human, UniProt Q12851 1-820, limits assumed)
T3 sequence (looked up): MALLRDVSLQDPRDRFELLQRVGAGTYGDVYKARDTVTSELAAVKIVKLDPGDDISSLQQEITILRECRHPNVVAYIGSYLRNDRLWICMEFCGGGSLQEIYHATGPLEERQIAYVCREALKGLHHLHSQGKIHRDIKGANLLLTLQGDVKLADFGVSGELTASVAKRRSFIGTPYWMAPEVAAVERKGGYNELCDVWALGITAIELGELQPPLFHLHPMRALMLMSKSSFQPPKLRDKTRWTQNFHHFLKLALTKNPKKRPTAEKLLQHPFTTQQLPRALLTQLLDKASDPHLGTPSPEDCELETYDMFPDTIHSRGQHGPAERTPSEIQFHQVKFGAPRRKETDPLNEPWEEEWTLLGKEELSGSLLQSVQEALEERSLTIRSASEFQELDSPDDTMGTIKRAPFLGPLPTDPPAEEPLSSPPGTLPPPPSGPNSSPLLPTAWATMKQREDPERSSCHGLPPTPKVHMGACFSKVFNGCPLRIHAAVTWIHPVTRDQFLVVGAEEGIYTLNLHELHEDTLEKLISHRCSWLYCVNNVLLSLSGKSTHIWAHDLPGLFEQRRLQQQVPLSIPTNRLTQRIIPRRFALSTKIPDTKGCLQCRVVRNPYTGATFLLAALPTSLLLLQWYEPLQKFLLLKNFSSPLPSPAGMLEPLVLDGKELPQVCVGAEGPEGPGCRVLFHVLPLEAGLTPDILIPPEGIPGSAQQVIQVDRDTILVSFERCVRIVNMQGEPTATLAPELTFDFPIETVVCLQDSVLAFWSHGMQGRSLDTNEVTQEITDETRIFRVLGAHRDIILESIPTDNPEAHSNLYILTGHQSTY

T4: TAO1(h) (human, UniProt Q7L7X3 1-314, limits assumed)
T4 sequence (looked up): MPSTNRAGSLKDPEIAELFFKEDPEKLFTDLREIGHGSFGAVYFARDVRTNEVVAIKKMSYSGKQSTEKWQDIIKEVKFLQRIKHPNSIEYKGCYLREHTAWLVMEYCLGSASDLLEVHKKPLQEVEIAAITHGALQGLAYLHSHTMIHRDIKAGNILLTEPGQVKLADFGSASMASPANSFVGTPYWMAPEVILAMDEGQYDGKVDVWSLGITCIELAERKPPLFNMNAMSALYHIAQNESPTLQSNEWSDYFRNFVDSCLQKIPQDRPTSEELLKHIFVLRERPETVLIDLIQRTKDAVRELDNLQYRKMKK


Assays:
Assay in all cases: cell-based or functional assay
Plk3(h) = Plk3(h) (human, UniProt Q9H4B4 58-340, limits assumed)
cKit(V654A)(h) = cKit(V654A)(h) (human, UniProt P10721 544-976)
CaMKIV(h) = biological target: T1, CaMKIV(h)
PTK5(h) = PTK5(h) (human, UniProt P42685 1-505, limits assumed)
IR(h), activated = IR(h), activated (human, UniProt P06213 1005-1310, limits assumed)
MRCKβ(h) = biological target: T2, MRCKβ(h)
TrkB(h) = TrkB(h) (human, UniProt Q16620 455-822, limits assumed)
GCK(h) = biological target: T3, GCK(h)
Fes(h) = Fes(h) (human, UniProt P07332 1-822, limits assumed)
KDR(h) = KDR(h) (human, UniProt P35968 790-1356, limits assumed)
PKCβII(h) = PKCβII(h) (human, UniProt P05771-2 1-673)
JNK1α1(h) = JNK1α1(h) (human, UniProt P45983-2 1-384)
TAO1(h) = biological target: T4, TAO1(h)
Lck(h) activated = Lck(h) activated (human, UniProt P06239 1-509)
EGFR(T790M)(h) = EGFR(T790M)(h) (human, UniProt P00533 696-1210, limits assumed)
VRK2(h) = VRK2(h) (human, UniProt Q86Y07 1-508, limits assumed)

| Binder | % activity, 100 µM (Plk3(h)) [%] | % activity, 100 µM (cKit(V654A)(h)) [%] | % activity, 100 µM (CaMKIV(h)) [%] | % activity, 100 µM (PTK5(h)) [%] | % activity, 100 µM (IR(h), activated) [%] | % activity, 100 µM (MRCKβ(h)) [%] | % activity, 100 µM (TrkB(h)) [%] | % activity, 100 µM (GCK(h)) [%] | % activity, 100 µM (Fes(h)) [%] | % activity, 100 µM (KDR(h)) [%] | % activity, 100 µM (PKCβII(h)) [%] | % activity, 100 µM (JNK1α1(h)) [%] | % activity, 100 µM (TAO1(h)) [%] | % activity, 100 µM (Lck(h) activated) [%] | % activity, 100 µM (EGFR(T790M)(h)) [%] | % activity, 100 µM (VRK2(h)) [%] |
| --- | --- | --- | --- | --- | --- | --- | --- | --- | --- | --- | --- | --- | --- | --- | --- | --- |
| FAKLAARLYRKALARQLGVAA [MMI-0300] | 127 | 134 | 17 | 132 | 79 | 83 | 5 | 70 | 20 | 101 | 82 | 97 | 82 | 243 | 100 | 161 |
| KAFAKLAARLYRKALARQLGVAA [MMI-0400] | 129 | 150 | 18 | 129 | 59 | 71 | 8 | 66 | 16 | 94 | 75 | 98 | 73 | 216 | 106 | 185 |

Source: patent publication US20140072613A1 (published 2014)
